doi:10.1101/2020.11.06.371773
Where “and” joins values, the source holds several entries; their conditions need not be identical. Equal entries are not always repeated.

Target: Mayaro virus (MAYV) capsid (C) protein, strain IQT4235 (Mayaro virus, strain IQT4235)
Assay: cryo-EM structure

Question: For “Mayaro virus (MAYV) capsid (C) protein, strain IQT4235 (natural protein)”, which stoichiometry N is on record?
Answer: 6 and 5
